Data as given in publication PMC5376635, “NDR1-Dependent Regulation of Kindlin-3 Controls High-Affinity LFA-1 Binding and Immune Synapse Organization” (Molecular and Cellular Biology, 2017).

Columns and labels:
LFA-1 [1] = target: T1, LFA-1 (mouse (endogenous in OT-II T cells), UniProt P24063 24-1162; P11835 24-771); assay: single-molecule tracking by TIRF microscopy on supported lipid bilayers; ATTO-647N-labeled ICAM-1-GPI (300 molecules/μm^2) and I-A^b-OVA peptide (200 molecules/μm^2) in supported planar lipid bilayers; naive OT-II T cells or OT-II T cell blasts (also Rap1b KO, Mst1/2 DKO, kindlin-3 or NDR1 knock-down cells) on top; 30 frames/s for 200 s; arrests of 0.5 to 200 s counted as binding; koff from a single exponential fit …; conditions: one partner purified
T1 construct: integrin αL subunit of LFA-1, mouse; integrin β2 subunit of LFA-1, mouse; also called αL/β2 integrin; source: endogenous, on naive OT-II T cells and OT-II T cell blasts (mouse)
T1 sequence (P24063 24-1162, chain 1 of 2): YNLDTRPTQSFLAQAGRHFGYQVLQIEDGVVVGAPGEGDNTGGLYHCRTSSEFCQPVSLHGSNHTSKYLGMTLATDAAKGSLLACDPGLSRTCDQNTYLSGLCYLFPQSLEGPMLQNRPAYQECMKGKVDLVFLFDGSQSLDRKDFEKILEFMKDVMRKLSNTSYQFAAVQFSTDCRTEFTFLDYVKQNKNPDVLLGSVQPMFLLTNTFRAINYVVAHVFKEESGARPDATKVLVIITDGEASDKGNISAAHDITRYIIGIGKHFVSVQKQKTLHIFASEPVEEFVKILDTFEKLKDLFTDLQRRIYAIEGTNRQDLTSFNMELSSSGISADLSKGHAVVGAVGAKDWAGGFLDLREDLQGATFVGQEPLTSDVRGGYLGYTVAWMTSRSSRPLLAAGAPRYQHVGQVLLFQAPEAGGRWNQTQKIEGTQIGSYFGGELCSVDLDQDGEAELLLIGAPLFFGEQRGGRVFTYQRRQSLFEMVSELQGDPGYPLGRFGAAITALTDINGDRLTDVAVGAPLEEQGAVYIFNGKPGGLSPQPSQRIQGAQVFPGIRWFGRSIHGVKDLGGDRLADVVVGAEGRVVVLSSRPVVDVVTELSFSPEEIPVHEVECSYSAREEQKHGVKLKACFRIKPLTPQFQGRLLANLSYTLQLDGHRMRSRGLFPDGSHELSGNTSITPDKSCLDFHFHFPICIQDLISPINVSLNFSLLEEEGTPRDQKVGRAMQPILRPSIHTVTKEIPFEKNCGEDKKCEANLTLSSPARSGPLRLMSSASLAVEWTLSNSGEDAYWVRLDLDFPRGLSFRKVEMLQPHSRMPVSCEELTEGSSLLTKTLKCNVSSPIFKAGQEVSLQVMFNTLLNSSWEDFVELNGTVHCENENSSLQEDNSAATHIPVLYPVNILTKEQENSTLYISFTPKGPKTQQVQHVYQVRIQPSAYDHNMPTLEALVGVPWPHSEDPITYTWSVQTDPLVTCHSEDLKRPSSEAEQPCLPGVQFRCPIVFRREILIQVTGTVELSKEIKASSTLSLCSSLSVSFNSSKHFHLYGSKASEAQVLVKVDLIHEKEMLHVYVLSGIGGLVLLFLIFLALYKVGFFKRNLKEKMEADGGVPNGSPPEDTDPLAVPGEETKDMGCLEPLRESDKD
T1 sequence (P11835 24-771, chain 2 of 2): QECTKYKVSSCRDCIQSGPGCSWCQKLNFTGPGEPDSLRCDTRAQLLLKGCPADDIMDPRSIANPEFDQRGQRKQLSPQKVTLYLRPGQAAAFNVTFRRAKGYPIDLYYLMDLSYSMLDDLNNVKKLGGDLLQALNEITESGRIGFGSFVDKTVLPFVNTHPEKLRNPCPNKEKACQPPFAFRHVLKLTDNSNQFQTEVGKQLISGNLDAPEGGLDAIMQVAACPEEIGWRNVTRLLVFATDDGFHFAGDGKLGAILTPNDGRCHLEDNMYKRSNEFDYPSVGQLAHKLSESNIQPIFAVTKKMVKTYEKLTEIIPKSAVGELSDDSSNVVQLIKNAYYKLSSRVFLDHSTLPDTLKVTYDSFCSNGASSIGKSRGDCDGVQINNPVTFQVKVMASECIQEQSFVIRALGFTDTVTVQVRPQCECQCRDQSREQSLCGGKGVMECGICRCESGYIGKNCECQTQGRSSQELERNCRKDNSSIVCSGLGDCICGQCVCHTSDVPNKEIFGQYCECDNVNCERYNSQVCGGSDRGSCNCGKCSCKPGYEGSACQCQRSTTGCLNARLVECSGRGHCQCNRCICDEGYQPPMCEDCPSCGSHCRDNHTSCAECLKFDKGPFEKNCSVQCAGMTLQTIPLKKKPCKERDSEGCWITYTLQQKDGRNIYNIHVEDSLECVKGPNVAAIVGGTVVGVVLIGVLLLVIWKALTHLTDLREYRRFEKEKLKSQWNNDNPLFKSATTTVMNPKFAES

LFA-1 [2] = target: T1, LFA-1; assay: single-molecule tracking by TIRF microscopy on supported lipid bilayers; as a1 but with 1 mM Mn^2+ and in the absence of pMHC, similar ICAM-1 density; conditions: one partner purified

B1: Mouse ICAM-1-GPI (ligand)
chain: QVSIHPREAFLPQGGSVQVNCSSSCKEDLSLGLETQWLKDELESGPNWKLFELSEIGEDSSPLCFENCGTVQSSASATITVYSFPESVELRPLPAWQQVGKDLTLRCHVDGGAPRTQLSAVLLRGEEILSRQPVGGHPKDPKEITFTVLASRGDHGANFSCRTELDLRPQGLALFSNVSEARSLRTFDLPATIPKLDTPDLLEVGTQQKLFCSLEGLFPASEARIYLELGGQMPTQESTNSSDSVSATALVEVTEEFDRTLPLRCVLELADQILETQRTLTVYNFSAPVLTLSQLEVSEGSQVTVKCEAHSGSKVVLLSGVEPRPPTPQVQFTLNASSEDHKRSFFCSAALEVAGKFLFKNQTLELHVLYGPRLDETDCLGNWTWQEGSQQTLKCQAWGNPSPKMTCRRKADGALLPIGVVKSVKQEMNGTYVCHAFSSHGNVTRNVYLTVLYHSQNN
modifications: GPI anchor; labeled with ATTO-647N-NHS-ester
koff (LFA-1 [1]): 0.032 s⁻¹
fold increase of binding durations longer than 10 s with Mn^2+ (LFA-1 [2]): 2 fold
